One substance from publication doi:10.1101/2025.01.04.631317 can be followed below.

The target in this assay is RSV post-fusion F (Flys-GCN without StrepII-tag) (Respiratory Syncytial Virus). The experiment in a line: cryo-EM structure.

A word on the stoichiometry N: it is a count of units in the complex or per binding partner.

Take “RSV post-fusion F (Flys-GCN without StrepII-tag)”: the stoichiometry N turned out to be 3.
